Data published in patent US20070166314A1 (AstraZeneca / MedImmune, published 2007).

Key:
[1] = biological target: T1, EphA2-Fc (extracellular domain of human EphA2 linked to human IgG1 constant region) (human, UniProt P29317 24-537); assay: competitive ELISA on EphA2-Fc; competitor: labeled EA2; x axis is the ratio of unlabeled to labeled antibody
T1 construct: extracellular domain; Used as immunogen, ELISA antigen and BIACORE ligand; not shown: human IgG1 constant region
Text: Supernatants from bulk culture hybridomas were screened for immunoreactivity against EphA2 (Table 6, column 4) using standard molecular biological techniques (e.g., ELISA immunoassay). Supernatants were further screened for the ability to inhibit an EphA2 monoclonal antibody (EA2; ATCC deposit no. PTA-4380; see co-pending U.S. patent application Ser. No. 10/436,783, entitled “EphA2 Agonistic Monoclonal Antibodies and Methods of Use Thereof” filed May 12, 2003) from binding to EphA2. […] Both antibodies could decrease the amount of labeled EA2 binding to EphA2-Fc with increasing concentrations of unlabeled antibody added. Additionally, many of the other antibodies could inhibit EA2 binding to EphA2 as well (Table 6, column 3).

[2] = biological target: T2, EphA2 on cells (MDA-MB-231, MCF-10A, MCF-7 transfected with human EphA2) (human, UniProt P29317 24-976); assay: immunofluorescence, 10 µg/ml at 4 C, MDA-MB-231 and MCF-10A cells
T2 construct: whole, on cells; MDA-MB-231 and MCF-10A carry endogenous EphA2 and no species is stated for them
T2 sequence (P29317 24-976): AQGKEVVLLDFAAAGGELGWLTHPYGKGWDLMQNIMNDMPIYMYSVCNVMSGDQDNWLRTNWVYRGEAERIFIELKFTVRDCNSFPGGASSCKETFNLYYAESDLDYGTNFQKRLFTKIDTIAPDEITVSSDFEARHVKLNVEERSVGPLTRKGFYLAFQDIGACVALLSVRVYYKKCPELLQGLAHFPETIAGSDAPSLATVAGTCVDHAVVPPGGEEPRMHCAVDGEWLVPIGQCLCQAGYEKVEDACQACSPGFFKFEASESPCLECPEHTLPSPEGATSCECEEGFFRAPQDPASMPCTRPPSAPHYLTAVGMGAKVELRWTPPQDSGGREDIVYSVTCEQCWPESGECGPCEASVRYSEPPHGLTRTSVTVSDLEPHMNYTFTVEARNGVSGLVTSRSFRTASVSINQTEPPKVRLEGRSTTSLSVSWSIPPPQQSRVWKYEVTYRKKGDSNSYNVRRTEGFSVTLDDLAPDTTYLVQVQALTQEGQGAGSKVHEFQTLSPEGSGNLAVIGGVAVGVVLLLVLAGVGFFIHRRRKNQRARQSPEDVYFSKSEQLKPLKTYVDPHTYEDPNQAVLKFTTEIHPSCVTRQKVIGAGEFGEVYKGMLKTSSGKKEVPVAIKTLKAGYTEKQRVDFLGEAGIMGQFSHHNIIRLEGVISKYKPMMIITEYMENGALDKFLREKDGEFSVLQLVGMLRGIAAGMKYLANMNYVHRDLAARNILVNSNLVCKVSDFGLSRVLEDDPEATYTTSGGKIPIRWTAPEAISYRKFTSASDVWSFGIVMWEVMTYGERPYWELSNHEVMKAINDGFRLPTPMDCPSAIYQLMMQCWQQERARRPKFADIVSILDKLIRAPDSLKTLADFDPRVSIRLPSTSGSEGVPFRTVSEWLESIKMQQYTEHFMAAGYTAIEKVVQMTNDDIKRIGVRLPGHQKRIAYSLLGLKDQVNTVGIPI
Experimental: The epitopes of EphA2 antibodies were characterized. […] EA2 preferentially binds EphA2 on transformed cells (FIG. 16D). […] Treatment of non-transformed MCF-10A cells with 4 mM EGTA for 20 min. dissociated the cells. EA2 bound EphA2 on the EGTA dissociated cells but not the untreated cells (FIGS. 17A-17B).

[3] = biological target: T1, EphA2-Fc (extracellular domain of human …); assay: BIACORE, EphA2-Fc immobilized on a CM5 chip, double-referenced; undiluted hybridoma supernatant
Experimental: EphA2-Fc was immobilize to a surface on a CM5 sensorchip using a standard amine (70 μl of a 1:1 mix of NHS/EDC) coupling chemistry. Briefly, a 400 nM solution of EphA2-Fc in 10 mM NaOAc, pH4, was then injected over the activated surface to a density of 1000-1100 RU's. Unused reactive esters were subsequently “capped” with a 70 μinjection of 1M Et-NH2. Similarly, an activated and “capped” control surface was prepared on the same sensor chip without protein to serve as a reference surface.
A 250 μl injection of each of the EphA2 hybridoma supernatants was made over both the EphA2-Fc and control surfaces, and the binding responses were recorded. These supernatants were used undiluted. Following each injection, at least 10 min. of dissociation phase data was collected. Purified EphA2 monoclonal antibody EA2 was prepared to serve as a positive control (at 1 μg, 5 μg and 25 μg per 250 μl of growth medium). […] Control injections of growth medium across these surfaces were also made. Following each binding cycle, the EphA2-Fc surface was regenerated with a single 1 min. pulse (injection) of 1M NaCl-50 mM NaOH.

T1 sequence (P29317 24-537): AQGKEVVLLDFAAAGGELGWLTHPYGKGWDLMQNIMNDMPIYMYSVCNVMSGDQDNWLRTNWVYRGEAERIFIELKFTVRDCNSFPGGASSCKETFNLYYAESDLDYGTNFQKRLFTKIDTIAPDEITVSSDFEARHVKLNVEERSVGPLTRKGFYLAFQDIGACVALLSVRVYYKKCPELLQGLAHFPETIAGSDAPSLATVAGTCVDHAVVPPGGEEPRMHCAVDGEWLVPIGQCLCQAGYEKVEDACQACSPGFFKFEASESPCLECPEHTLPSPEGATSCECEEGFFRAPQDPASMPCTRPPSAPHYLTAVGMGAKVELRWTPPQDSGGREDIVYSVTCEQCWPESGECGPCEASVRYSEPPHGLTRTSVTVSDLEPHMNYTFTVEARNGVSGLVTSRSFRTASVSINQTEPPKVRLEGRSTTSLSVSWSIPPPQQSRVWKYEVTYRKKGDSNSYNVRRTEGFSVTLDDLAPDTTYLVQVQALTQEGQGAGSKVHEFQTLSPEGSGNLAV

Row | binding result [1] | binding result [2] | binding result [3] | Binder
1 | binds |  |  | Eph099B-208.261 (ATCC PTA-4573) (antibody, V domains shown, Mouse hybridoma antibody (SJL mice)) VH: QVQLQQPGAELVKPGASVKLSCKASGYTFTSYWMHWVKQRPGQGLEWIGMIHPNSGSTNYNEKFKSKATLTVDKSSSTAYMRLSSLTSEDSAVYYCARGGNMVGGGYWGQGTTLTVSS VL: QIVLTQSPALMSASPGEKVTMTCSASSSVSYMYWYQQKPRSSPKPWIYLTTNLASGVPARFSGSGSGTSYSLTISSMEAEDAATYYCQQWSSNPFTFGSGTKLEIR
2 |  | binds | binds | Eph099B-233.152 (ATCC PTA-5194) (antibody, V domains shown, Mouse hybridoma antibody (SJL mice); detected with anti-mouse IgG) VH: EVKLVESGGGLVQPGGSLSLSCAASGFTFTDYSMNWVRQPPGKALEWLGFIRNKANDYTTEYSASVKGRFTISRDNSQSILYLQMNALRAEDSATYYCVRYPRYHAMDSWGQGTSVTVSS VL: DIVLTQSPATLSVTPGDSVNLSCRASQSISNNLHWYQQKSHESPRLLIKYVFQSISGIPSRFSGSGSGTDFTLSINSVETEDFGMYFCQQSNSWPLTFGAGTKLELK
